Residue numbers refer to the chain shown, from its start. Numbers in names are those of the source.
B1: R135G: MGMT polypeptide with mutation R135G (protein)
chain: MDKDCEMKRTTLDSPLGKLELSGCEQGLHEIKLLGKGTSAADAVEVPAPAAVLGGPEPLMQCTAWLNAYFHQPEAIEEFPVPALHHPVFQQESFTRQVLWKLLKVVKFGEVISYQQLAALAGNPKAARAVGGAMGGNPVPILIPCHRVVCSSGAVGNYSGGLAVKEWLLAHEGHRLGKPGLGGSSGLAGAWLKGAGATSGSPPAGRN
B2: R135K: MGMT polypeptide with mutation R135K (protein)
chain: B1 chain with G135K
B3: R135L: MGMT polypeptide with mutation R135L (protein)
chain: B1 chain with G135L
B4: R135T: MGMT polypeptide with mutation R135T (protein)
chain: B1 chain with G135T
B5: N137D: MGMT polypeptide with mutation N137D (protein)
chain: B1 chain with G135R, N137D
B6: N137F: MGMT polypeptide with mutation N137F (protein)
chain: B1 chain with G135R, N137F

These molecules were tested on U251 human glioblastoma cell line (assay: in vitro FM-HCR assay of MGMT activity (mPlum O^6MeG reporter plasmid)). Conditions: 100 μM O^6BG; U251 cells; flow cytometry 24 h after transfection; damaged/undamaged reporter; inversely related to MGMT activity.
Type: cell-based
Source text: The present Example includes, in part, an in vitro fluorescence multiplex host cell reactivation (FM-HCR) assay in which a reporter plasmid with O^6MeG-containing oligonucleotides is used. The oligonucleotides induce transcription errors that lead to expression of fluorescent mPlum protein. Functional MGMT will repair the O^6MeG sites and reduce mPlum expression. This represents a rapid and validated assay system to assess intracellular activity of MGMT. Further description of certain such assays is found in Nagel (2014 PNAS USA 111 (18): E1823-32, which is incorporated herein by reference.
The present Example uses an in vitro FM-HCR assay in which a reporter plasmid with 0° MeG-containing oligonucleotides is used to assay MGMT activity in cells. The O^6MeG-containing oligonucleotides induce transcription errors that lead to expression of fluorescent mPlum protein. Functional MGMT will repair the O'MeG sites and reduce mPlum expression. This represents a rapid and validated assay system to assess intracellular activity of MGMT. Further description of certain such assays is found in Nagel et al., 2014 PNAS USA 111 (18): E1823-32 and Piett et al., 2021 Nat. Protoc. 16 (9): 4265-4298, each of which is incorporated herein by reference.
The in vitro FM-HCR assay was performed using the U251 human glioblastoma cell line. The cells were cultured in DMEM with 10% FBS and passaged every three days.
To express MGMT variants in the cells, plasmids encoding each MGMT variant were designed and generated by either de novo synthesis or cloning into the pTwist EF1 Alpha Puro vector at the HindII-BamHI multiple cloning site. The pTwist EF1 Alpha Puro plasmid vector drives expression of the MGMT transcript from a human EF1-alpha promoter including intron 1 and an SV40 polyadenylation signal. Plasmids encoding the MGMT variants were purified using standard molecular biology techniques from E. coli with low endotoxins. Plasmids encoding wild-type MGMT or O^6BG-resistant MGMT^P140K were also designed and generated for use as controls.
To perform the in vitro FM-HCR assay, U251 cells were seeded in 12-well plates at a density of 50,000 cells per well in 1 mL culture media. The following day, the media was changed to 1 mL of culture media containing O^6BG (100 μM O^6BG and 0.1% DMSO final) or 0.1% DMSO; and the cells were transfected with 1,000 ng of a plasmid cocktail using Lipofectamine 3000 (ThermoFisher Scientific) at 1.8 μL Lipofectamine 3000 Reagent and 2 μL P3000 reagent in Opti-MEM medium (ThermoFisher Scientific). […] For the “undamaged” condition, the plasmid cocktail replaced the mPlum O^6MeG reporter plasmid with 100 ng of a plasmid expressing mPlum. The plasmid encoding BFP was used as an internal transfection control. For transfections where no MGMT encoding plasmid is used (no pMGMT), 250 ng of additional carrier plasmid was used to maintain a total DNA amount of 1,000 ng in each transfection. Four hours after transfection, the transfection medium was changed.
All transfected cells were analyzed by flow cytometry at 24-hours after transfection. Data was analyzed as previously described in Nagel et al., 2014 PNAS USA 111 (18): E1823-32 and Piett et al., 2021 Nat. Protoc. 16 (9): 4265-4298. For each condition, normalized reporter expression was determined by taking the product of the mPlum-positive cell count and the mean mPlum fluorescence intensity in mPlum-positive cells and dividing it by the product of the BFP-positive cell count and the mean BFP fluorescence intensity in BFP-positive cells. Next, for each MGMT variant, the percent reporter expression was determined by taking the normalized reporter expression in the “damaged” condition and dividing it by the normalized reporter expression in the “undamaged” condition, and then multiplying by 100 to obtain a percent value. […]

| Molecule | Reporter expression (%) mean, O^6BG [%] |
| --- | --- |
| B1 | 106.0 |
| B2 | 84.3 |
| B3 | 82.5 |
| B4 | 101.7 |
| B5 | 80.7 |
| B6 | 104.3 |

Same assay, conditions: 0.1% DMSO; U251 cells; flow cytometry 24 h after transfection; damaged/undamaged reporter; inversely related to MGMT activity

| Molecule | Reporter expression (%) mean, DMSO [%] |
| --- | --- |
| B1 | 20.0 |
| B2 | 13.3 |
| B3 | 42.8 |
| B4 | 27.3 |
| B5 | 52.3 |
| B6 | 109.7 |

Same assay, conditions: DMSO condition; determined from percent reporter expression

| Molecule | MGMT activity (a.u.) DMSO [a.u.] |
| --- | --- |
| B1 | 5.00 |
| B2 | 7.50 |
| B3 | 2.34 |
| B4 | 3.66 |
| B5 | 1.91 |
| B6 | 0.91 |

Same assay, conditions: DMSO condition; relative to wild-type MGMT in same condition

| Molecule | MGMT activity (% of WT) DMSO |
| --- | --- |
| B1 | 92.5 % of WT |
| B2 | 138.8 % of WT |
| B3 | 43.3 % of WT |
| B4 | 67.7 % of WT |
| B5 | 35.4 % of WT |
| B6 | 16.9 % of WT |

Same assay, conditions: MGMT activity (a.u.) in O^6BG divided by DMSO x 100; higher values indicate resistance

| Molecule | Relative MGMT activity (%) |
| --- | --- |
| B1 | 18.9 |
| B2 | 15.8 |
| B3 | 51.8 |
| B4 | 26.9 |
| B5 | 64.9 |
| B6 | 105.1 |

Same assay, conditions: O^6BG condition; determined from percent reporter expression

| Molecule | MGMT activity (a.u.) O^6BG [a.u.] |
| --- | --- |
| B1 | 0.94 |
| B2 | 1.19 |
| B3 | 1.21 |
| B4 | 0.98 |
| B5 | 1.24 |
| B6 | 0.96 |

Same assay, conditions: O^6BG condition; relative to wild-type MGMT in same condition

| Molecule | MGMT activity (% of WT) O^6BG |
| --- | --- |
| B1 | 66.0 % of WT |
| B2 | 83.0 % of WT |
| B3 | 84.8 % of WT |
| B4 | 68.9 % of WT |
| B5 | 86.8 % of WT |
| B6 | 67.1 % of WT |

Same assay, conditions: lower values indicate resistance to O^6BG

| Molecule | Ratio percent reporter expression (O^6BG/DMSO) |
| --- | --- |
| B1 | 5.30 |
| B2 | 6.33 |
| B3 | 1.93 |
| B4 | 3.72 |
| B5 | 1.54 |
| B6 | 0.95 |

Same assay, conditions: percentage difference in relative MGMT activity between variant and wild-type MGMT

| Molecule | O^6BG resistance relative to WT (%) |
| --- | --- |
| B1 | −28.6 |
| B2 | −40.2 |
| B3 | 96.1 |
| B4 | 1.7 |
| B5 | 145.5 |
| B6 | 297.7 |

— patent US20250135039A1, “INHIBITOR-RESISTANT MGMT MODIFICATIONS AND MODIFICATION OF MGMT-ENCODING NUCLEIC ACIDS” (Ensoma, Inc., priority 2022, published 2025)
